Data taken from US12466854B2, “Peptide useful for the transport of molecules through cell barriers” (UNIVERSITÉ GRENOBLE ALPES, priority 2022, dated 2025).

System: differentiated cellular BBB model
Test: Study B: permeability of the nanobodies and conjugates through differentiated cellular BBB model (ELISA)
Format: in vitro ADME, rats
Settings: samples at 60 and 120 min, FIG. 7
Procedure: Cerebral microvessel endothelial cells prepared from 5-week-old male rats were seeded on microporous filters in order to: • evaluate the toxicity of the nanobodies and conjugates during their transfer by kinetic measurement of the sucrose transfer. • evaluate the permeability of the nanobodies and conjugates in the blood/brain direction. Experimental Conditions: • The endothelial cells were seeded on 28 Transwell Polycarbonate filters (porosity 0.4 μm and diameter 12 mm), and cultured in differentiation medium. • The measurement of toxicity (study A) or permeability (study B) of the nanobodies and conjugates was carried out in HBSS Ca/Mg medium supplemented with 0.1% BSA.
For study B, the medium collected at 60 min basolaterally was replaced by the same volume of fresh medium.
The samples collected at 60 and 120 min were analyzed by ELISA test to evaluate the quantity of nanobodies and conjugates which passed during study B. To be able to analyze the different samples by ELISA, it was necessary to first purify them to remove BSA limiting adhesion to 96-well plates of ELISA test. Thanks to the polyhistidine label present on the 3 nanobodies and conjugates, purifications on a 96-well plate coated with Nickel-NTA were carried out. […]
An absorbance reading was carried out at 450 nm after stopping the colorimetric reaction using a 1 N HCl solution. […]

B1: 2C5: anti-Tau nanobody (VHH, SEQ ID NO: 3) detecting pathological oligomeric forms of Tau protein (protein)
VHH: QVQLVQSGGGLVQAGGSLRLSCAASGRTFSSDTLAWFRQAPGKEREFVASISPSGGVTYYEDSVKGRFTISRDNSKNTVLLQMNSLTPEDTAVYYCNRDPKYGNTRYWGQGTQVTVSSAAA
  passage through the BBB model (blood/brain direction): not passing this model
